How the values were obtained:
[1] = target: T1, human recombinant CD3ε/δ heterodimer (human, UniProt P07766 23-126; P04234 22-105, N-linked glycosylations (sites not given)); test: SPR; CD3 heterodimers amine-coupled at pH 4 to CM5 chips (mouse CD3ε/δ 3,900 RU, human CD3ε/δ 9,800 RU, human CD3ε/γ 8,900 RU); gal 4 as analyte, 2-fold dilutions 16 to 0.5 μmol/L, 120 s association, 120 s dissociation; 25°C; 10 mmol/L phosphate pH 7.4, 140 mmol/L NaCl, 0.27 mmol/L KCl, 0.05% Tween 20; Biacore T-200; conditions: both partners purified
T1 construct: CD3 epsilon chain, human; CD3 delta chain, human; it is probably made of the extracellular domains with vendor tags (surmise); The vendor's catalogue entry would give them; also called human CD3ε/δ; CD3δ/ε; source: bought: ACROBiosystems, CDD-H52wa-100 μg

[2] = target: T2, human recombinant CD3ε/γ heterodimer (human, UniProt P07766 23-126; P09693 23-116); test: SPR
T2 chain 1: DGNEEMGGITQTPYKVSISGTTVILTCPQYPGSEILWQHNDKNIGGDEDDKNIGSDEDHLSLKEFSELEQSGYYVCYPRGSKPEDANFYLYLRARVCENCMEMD
T2 chain 2: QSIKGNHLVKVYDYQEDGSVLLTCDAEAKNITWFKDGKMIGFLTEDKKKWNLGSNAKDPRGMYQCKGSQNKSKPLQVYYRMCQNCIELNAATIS

[3] = target: T3, human recombinant CD3ε/δ heterodimer (human, UniProt P07766 23-126; P04234 22-105, N-linked glycosylations (sites not given)); test: SPR
T3 chain 1: T2 chain 1
T3 chain 2: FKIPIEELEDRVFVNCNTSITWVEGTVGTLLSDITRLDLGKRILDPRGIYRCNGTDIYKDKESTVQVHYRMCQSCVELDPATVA

fold affinity against CD3γ/ε [1]: 10 fold | Kd [2]: ~10 µM | Kd [3]: ~1 µM
B1: human recombinant galectin 4 (natural protein, UniProt P56470 1-323, looked up)
chain: MAYVPAPGYQPTYNPTLPYYQPIPGGLNVGMSVYIQGVASEHMKRFFVNFVVGQDPGSDVAFHFNPRFDGWDKVVFNTLQGGKWGSEERKRSMPFKKGAAFELVFIVLAEHYKVVVNGNPFYEYGHRLPLQMVTHLQVDGDLQLQSINFIGGQPLRPQGPPMMPPYPGPGHCHQQLNSLPTMEGPPTFNPPVPYFGRLQGGLTARRTIIIKGYVPPTGKSFAINFKVGSSGDIALHINPRMGNGTVVRNSLLNGSWGSEEKKITHNPFGPGQFFDLSIRCGLDRFKVYANGQHLFDFAHRLSAFQRVDTLEIQGDVTLSYVQI
notes: galectin 4 (LGALS4), Homo sapiens, cDNA NM_006149.4 recloned from pcDNA3.1-C-(k)DYK into pET-His1a (NcoI + Acc65I); The Hisx6-TEV tag was removed before use; also called gal 4; hgal 4; source: E. coli Rosetta (DE3), purified (NiNTA, tag removal with TEV protease, second NiNTA run); not shown: His6, N-terminal, cleaved

From publication PMC9808371, “Extracellular Galectin 4 Drives Immune Evasion and Promotes T-cell Apoptosis in Pancreatic Cancer” (Cancer Immunology Research, 2022)
